{"source": "patent US20230256076A1", "about": "(SICHUAN CLOVER BIOPHARMACEUTICALS, published 2023)", "binders": {"B1": {"name": "palivizumab (antibody, V domains shown)", "VH": "QVTLRESGPALVKPTQTLTLTCTFSGFSLSTSGMSVGWIRQPPGKALEWLADIWWDDKKDYNPSLKSRLTISKDTSKNQVVLKVTNMDPADTATYYCARSMITNWYFDVWGAGTTVTVSS", "VL": "DIQMTQSPSTLSASVGDRVTITCKCQLSVGYMHWYQQKPGKAPKLLIYDTSKLASGVPSRFSGSGSGTEFTLTISSLQPDDFATYYCFQGSGYPFTFGGGTKLEIK"}}, "biological_target": "T1, exemplary recombinant polypeptide trimer: RSV F protein peptide (residues 1 to 520, RSV A2 strain) fused to … (respiratory syncytial virus A2 strain; …, UniProt P02452 1156-1464)", "T1 construct": "range 1-520;domain: C-propeptide of α1 collagen; Furin processing (F2/F1, loss of pep27) is not described for the tested protein; also called RSV F-Trimer; exemplary fusion peptide comprising an RSV F protein peptide", "T1 sequence (P02452 1156-1464)": "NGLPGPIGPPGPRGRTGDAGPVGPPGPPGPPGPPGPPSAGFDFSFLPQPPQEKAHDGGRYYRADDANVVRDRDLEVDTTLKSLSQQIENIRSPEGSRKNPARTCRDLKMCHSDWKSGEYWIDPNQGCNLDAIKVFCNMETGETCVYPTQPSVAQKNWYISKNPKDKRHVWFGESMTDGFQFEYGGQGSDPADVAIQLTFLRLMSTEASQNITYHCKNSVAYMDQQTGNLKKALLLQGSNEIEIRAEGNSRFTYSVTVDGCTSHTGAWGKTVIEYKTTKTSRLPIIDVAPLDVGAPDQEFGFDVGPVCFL", "assay": "BLI (ForteBio Octet QKe); palivizumab 5 µg/mL on Protein A sensors, 2-fold dilutions of fusion peptide from 20 µg/mL, 1:1 model", "data": [{"binder": "B1", "values": [{"measurement": "Kd", "result": "< 1", "unit": "pM"}]}]}
